The term Kd denotes the equilibrium constant for the complex coming apart. A higher Kd goes with weaker binding.

T1: EsCas13d, nuclease-dead (Eubacterium siraeum, UniProt B0MS50, R295A;H300A;R849A;H854A)
T1 sequence: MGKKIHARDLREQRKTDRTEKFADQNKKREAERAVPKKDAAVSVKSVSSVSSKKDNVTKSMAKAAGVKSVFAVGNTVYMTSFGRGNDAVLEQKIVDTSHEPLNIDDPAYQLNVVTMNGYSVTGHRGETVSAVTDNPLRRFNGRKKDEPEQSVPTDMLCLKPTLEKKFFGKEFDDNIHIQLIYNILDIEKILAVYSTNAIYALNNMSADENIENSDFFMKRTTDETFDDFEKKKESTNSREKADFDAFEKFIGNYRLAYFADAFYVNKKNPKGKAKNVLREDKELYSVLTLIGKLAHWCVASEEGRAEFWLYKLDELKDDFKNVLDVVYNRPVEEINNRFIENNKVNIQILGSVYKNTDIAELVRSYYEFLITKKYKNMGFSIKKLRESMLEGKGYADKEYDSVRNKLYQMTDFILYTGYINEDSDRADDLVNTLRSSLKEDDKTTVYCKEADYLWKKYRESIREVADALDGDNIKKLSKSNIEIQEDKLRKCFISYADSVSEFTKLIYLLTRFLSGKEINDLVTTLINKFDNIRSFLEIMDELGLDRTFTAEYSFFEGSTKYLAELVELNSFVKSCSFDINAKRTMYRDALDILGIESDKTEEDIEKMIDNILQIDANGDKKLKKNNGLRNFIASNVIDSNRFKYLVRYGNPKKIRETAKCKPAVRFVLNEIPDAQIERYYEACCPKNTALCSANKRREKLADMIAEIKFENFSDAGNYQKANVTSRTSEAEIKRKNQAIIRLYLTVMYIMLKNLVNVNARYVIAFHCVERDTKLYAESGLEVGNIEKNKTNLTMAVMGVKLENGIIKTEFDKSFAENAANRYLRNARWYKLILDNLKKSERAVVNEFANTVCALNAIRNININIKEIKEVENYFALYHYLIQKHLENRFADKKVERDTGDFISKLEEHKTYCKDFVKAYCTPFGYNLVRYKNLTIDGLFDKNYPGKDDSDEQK

B1: target 1 A1U,G17U (mixed)
RNA 1: CACCCGUGCAAAAAUGCAGGGGUCUAAAACUGAGCGGAUAACCUCUCUAUGG
RNA 2: GGGAAUGGAUCCACAUCUACGAAUUCGUACCAUAUAGAGGUUAUCCGCUCUCCGAGAUCGGAAGAGCACACGU
B2: target 1 insA 3' of 22,insA 3' of 19 (mixed)
RNA 1: CACCCGUGCAAAAAUGCAGGGGUCUAAAACUGAGCGGAUAACCUCUCUAUGG
RNA 2: GGGAAUGGAUCCACAUCUACGAAUUCGUACACAUAAGAGAGGUUAUCCGCUCACCGAGAUCGGAAGAGCACACGU
B3: target 1 del14,del19 (mixed)
RNA 1: CACCCGUGCAAAAAUGCAGGGGUCUAAAACUGAGCGGAUAACCUCUCUAUGG
RNA 2: GGGAAUGGAUCCACAUCUACGAAUUCGUACCAAGAGGGUUAUCCGCUCACCGAGAUCGGAAGAGCACACGU
B4: target 1 insC 3' of 22,insG 3' of 19 (mixed)
RNA 1: CACCCGUGCAAAAAUGCAGGGGUCUAAAACUGAGCGGAUAACCUCUCUAUGG
RNA 2: GGGAAUGGAUCCACAUCUACGAAUUCGUACCCAUGAGAGAGGUUAUCCGCUCACCGAGAUCGGAAGAGCACACGU
B5: target 3 insA 3' of 8,insC 3' of 7 (mixed)
RNA 1: CACCCGUGCAAAAUUGCAGGGGUCUAAAACGACCUGAAUAUUUCAGAUCAAA
RNA 2: GGGAAUGGAUCCACAUCUACGAAUUCGUUUUUGAUCUGAAAUAUAUCCAGGUCUGCAGAUCGGAAGAGCACACGU
B6: target 3 insU 3' of 1,insG 3' of 1 (mixed)
RNA 1: CACCCGUGCAAAAUUGCAGGGGUCUAAAACGACCUGAAUAUUUCAGAUCAAA
RNA 2: GGGAAUGGAUCCACAUCUACGAAUUCGUUUUUGAUCUGAAAUAUUCAGGUCUGUGCAGAUCGGAAGAGCACACGU
B7: target 3 G3A,C6U (mixed)
RNA 1: CACCCGUGCAAAAUUGCAGGGGUCUAAAACGACCUGAAUAUUUCAGAUCAAA
RNA 2: GGGAAUGGAUCCACAUCUACGAAUUCGUUUUUGAUCUGAAAUAUUUAGAUCUGCAGAUCGGAAGAGCACACGU
B8: target 3 insG 3' of 9,insC 3' of 4 (mixed)
RNA 1: CACCCGUGCAAAAUUGCAGGGGUCUAAAACGACCUGAAUAUUUCAGAUCAAA
RNA 2: GGGAAUGGAUCCACAUCUACGAAUUCGUUUUUGAUCUGAAAUAGUUCAGCGUCUGCAGAUCGGAAGAGCACACGU
B9: target 3 insC 3' of 8,insG 3' of 8 (mixed)
RNA 1: CACCCGUGCAAAAUUGCAGGGGUCUAAAACGACCUGAAUAUUUCAGAUCAAA
RNA 2: GGGAAUGGAUCCACAUCUACGAAUUCGUUUUUGAUCUGAAAUAUCGUCAGGUCUGCAGAUCGGAAGAGCACACGU
B10: target 3 A18G,U21A (mixed)
RNA 1: CACCCGUGCAAAAUUGCAGGGGUCUAAAACGACCUGAAUAUUUCAGAUCAAA
RNA 2: GGGAAUGGAUCCACAUCUACGAAUUCGUUUAUGGUCUGAAAUAUUCAGGUCUGCAGAUCGGAAGAGCACACGU
B11: target 3 G4A,C6A (mixed)
RNA 1: CACCCGUGCAAAAUUGCAGGGGUCUAAAACGACCUGAAUAUUUCAGAUCAAA
RNA 2: GGGAAUGGAUCCACAUCUACGAAUUCGUUUUUGAUCUGAAAUAUUAAAGUCUGCAGAUCGGAAGAGCACACGU
B12: target 3 insU 3' of 11,insA 3' of 7 (mixed)
RNA 1: CACCCGUGCAAAAUUGCAGGGGUCUAAAACGACCUGAAUAUUUCAGAUCAAA
RNA 2: GGGAAUGGAUCCACAUCUACGAAUUCGUUUUUGAUCUGAAAUUAUUACAGGUCUGCAGAUCGGAAGAGCACACGU
B13: target 3 U8C,A18G (mixed)
RNA 1: CACCCGUGCAAAAUUGCAGGGGUCUAAAACGACCUGAAUAUUUCAGAUCAAA
RNA 2: GGGAAUGGAUCCACAUCUACGAAUUCGUUUUUGGUCUGAAAUACUCAGGUCUGCAGAUCGGAAGAGCACACGU
B14: target 3 insU 3' of 22,insC 3' of 2 (mixed)
RNA 1: CACCCGUGCAAAAUUGCAGGGGUCUAAAACGACCUGAAUAUUUCAGAUCAAA
RNA 2: GGGAAUGGAUCCACAUCUACGAAUUCGUUUUUUGAUCUGAAAUAUUCAGGUCCUGCAGAUCGGAAGAGCACACGU
B15: target 3 G3U,A18G (mixed)
RNA 1: CACCCGUGCAAAAUUGCAGGGGUCUAAAACGACCUGAAUAUUUCAGAUCAAA
RNA 2: GGGAAUGGAUCCACAUCUACGAAUUCGUUUUUGGUCUGAAAUAUUCAGUUCUGCAGAUCGGAAGAGCACACGU
B16: target 3 insU 3' of 22,insU 3' of 1 (mixed)
RNA 1: CACCCGUGCAAAAUUGCAGGGGUCUAAAACGACCUGAAUAUUUCAGAUCAAA
RNA 2: GGGAAUGGAUCCACAUCUACGAAUUCGUUUUUUGAUCUGAAAUAUUCAGGUCUUGCAGAUCGGAAGAGCACACGU
B17: target 3 insG 3' of 1 (mixed)
RNA 1: CACCCGUGCAAAAUUGCAGGGGUCUAAAACGACCUGAAUAUUUCAGAUCAAA
RNA 2: GGGAAUGGAUCCACAUCUACGAAUUCGUUUUUGAUCUGAAAUAUUCAGGUCGUGCAGAUCGGAAGAGCACACGU
B18: target 3 insA 3' of 21,insG 3' of 5 (mixed)
RNA 1: CACCCGUGCAAAAUUGCAGGGGUCUAAAACGACCUGAAUAUUUCAGAUCAAA
RNA 2: GGGAAUGGAUCCACAUCUACGAAUUCGUUUUAUGAUCUGAAAUAUUCAGGGUCUGCAGAUCGGAAGAGCACACGU
B19: target 3 G4A,G19U (mixed)
RNA 1: CACCCGUGCAAAAUUGCAGGGGUCUAAAACGACCUGAAUAUUUCAGAUCAAA
RNA 2: GGGAAUGGAUCCACAUCUACGAAUUCGUUUUUUAUCUGAAAUAUUCAAGUCUGCAGAUCGGAAGAGCACACGU
B20: target 3 insC 3' of 5,insU 3' of 4 (mixed)
RNA 1: CACCCGUGCAAAAUUGCAGGGGUCUAAAACGACCUGAAUAUUUCAGAUCAAA
RNA 2: GGGAAUGGAUCCACAUCUACGAAUUCGUUUUUGAUCUGAAAUAUUCACGUGUCUGCAGAUCGGAAGAGCACACGU
B21: target 3 insA 3' of 21,insU 3' of 6 (mixed)
RNA 1: CACCCGUGCAAAAUUGCAGGGGUCUAAAACGACCUGAAUAUUUCAGAUCAAA
RNA 2: GGGAAUGGAUCCACAUCUACGAAUUCGUUUUAUGAUCUGAAAUAUUCUAGGUCUGCAGAUCGGAAGAGCACACGU
B22: target 3 A12C,U22A (mixed)
RNA 1: CACCCGUGCAAAAUUGCAGGGGUCUAAAACGACCUGAAUAUUUCAGAUCAAA
RNA 2: GGGAAUGGAUCCACAUCUACGAAUUCGUUAUUGAUCUGACAUAUUCAGGUCUGCAGAUCGGAAGAGCACACGU
B23: target 3 insA 3' of 6,insC 3' of 2 (mixed)
RNA 1: CACCCGUGCAAAAUUGCAGGGGUCUAAAACGACCUGAAUAUUUCAGAUCAAA
RNA 2: GGGAAUGGAUCCACAUCUACGAAUUCGUUUUUGAUCUGAAAUAUUCAAGGUCCUGCAGAUCGGAAGAGCACACGU
B24: target 3 insG 3' of 11,insU 3' of 3 (mixed)
RNA 1: CACCCGUGCAAAAUUGCAGGGGUCUAAAACGACCUGAAUAUUUCAGAUCAAA
RNA 2: GGGAAUGGAUCCACAUCUACGAAUUCGUUUUUGAUCUGAAAGUAUUCAGGUUCUGCAGAUCGGAAGAGCACACGU
B25: target 3 insC 3' of 8,insU 3' of 6 (mixed)
RNA 1: CACCCGUGCAAAAUUGCAGGGGUCUAAAACGACCUGAAUAUUUCAGAUCAAA
RNA 2: GGGAAUGGAUCCACAUCUACGAAUUCGUUUUUGAUCUGAAAUAUCUCUAGGUCUGCAGAUCGGAAGAGCACACGU
B26: target 3 U8A,U22A (mixed)
RNA 1: CACCCGUGCAAAAUUGCAGGGGUCUAAAACGACCUGAAUAUUUCAGAUCAAA
RNA 2: GGGAAUGGAUCCACAUCUACGAAUUCGUUAUUGAUCUGAAAUAAUCAGGUCUGCAGAUCGGAAGAGCACACGU
B27: target 3 U7G,U8G (mixed)
RNA 1: CACCCGUGCAAAAUUGCAGGGGUCUAAAACGACCUGAAUAUUUCAGAUCAAA
RNA 2: GGGAAUGGAUCCACAUCUACGAAUUCGUUUUUGAUCUGAAAUAGGCAGGUCUGCAGAUCGGAAGAGCACACGU

In this series the target is T1, EsCas13d, nuclease-dead. Put plainly: crRNA (strand 1, pre-loaded); Mg2+; 40 mM Tris-HCl pH 7.5, 150 mM NaCl, 6 mM MgCl2, 1 mM DTT, 0.1% Tween-20, 0.2 mg/ml BSA; 25 C; 10 min per concentration, then washed. Conditions: tags: His6-TwinStrep-SUMO cleaved; N-terminal SNAP kept (SNAP-Surface 488); label: 3' end held by stalled T7 RNA polymerase.
B1 showed a Kd of 18.8 ± 1.5 nM.

On to B2, for which the Kd stood at 38 ± 4 nM. This Kd is about 2-fold higher than that of the molecule before.

The molecule B3 showed a Kd of 79 ± 25 nM. Against the preceding molecule, the Kd is about 2.1-fold higher.

In turn, B4 had a dissociation constant (Kd) of 64 ± 15 nM.

On to B5, for which binding was characterised by a dissociation constant (Kd) of 67.5 ± 8 nM.

Molecule B6 returned a Kd of 20.4 ± 2.25 nM.

B7: the affinity, expressed as Kd, was 42 ± 5 nM.

Turning to B8, the Kd was ~102 nM.

Molecule B9 yielded a Kd of 79 ± 15.5 nM.

Regarding B10, the Kd came out at 57.5 ± 10 nM.

For the molecule B11, the affinity, expressed as Kd, was 23.8 ± 2.65 nM. This Kd is about 2.4-fold lower than that of the molecule before.

Consider B12, for which binding was put at a Kd of 100 ± 20.5 nM.

In turn, B13 displayed a Kd of 55.5 ± 4.5 nM. This Kd lies about 1.8-fold lower than the previous one.

In turn, B14 gave a Kd of 76.5 ± 24.5 nM.

With B15, the affinity, expressed as Kd, was 34.4 ± 3.25 nM.

In the case of B16, the Kd was determined as 77.5 ± 17.5 nM.

B17 registered a Kd of 44.5 ± 9.5 nM. This Kd lies about 1.7-fold lower than the previous one.

For the molecule B18, the Kd amounted to 71 ± 33.5 nM.

For B19, the Kd was 98.5 ± 19.5 nM.

With B20, binding was put at a Kd of 9.85 ± 0.85 nM.

Regarding B21, the Kd came to 84 ± 25.5 nM.

Turning to B22, the affinity, expressed as Kd, was 71 ± 26 nM.

On to B23, for which binding was put at a Kd of 35 ± 9 nM.

In turn, B24 gave a Kd of 96 ± 21.5 nM.

B25: binding was put at a Kd of 78 ± 11.5 nM.

As to B26, the Kd was determined as 110 ± 38.5 nM.

Take B27: the Kd worked out at 48.5 ± 9 nM.

The values above are taken from article PMC10786891, “Massively parallel profiling of RNA-targeting CRISPR-Cas13d”.
